Our source for the Km values is patent US20050032145A1, “Methods for measuring activity of glutamine:fructose 6-phosphate amidotransferase and activity of inhibitors thereof” (priority 2002, published 2005).

Substrate in data set [1]: O=C(CO)[C@@H](O)[C@H](O)[C@H](O)COP(=O)(O)O
As to the kind of experiment: Substrate Km determination, Lineweaver-Burk plot (GFAT-alpha). The class given is biochemical, human. As to conditions: other: extracts from transfected SF9 insect cells, other substrate at saturating levels. How it is done: (§1) FIG. 3 illustrates the effect of varying concentrations of the substrates glutamine and fructose 6-phosphate on the enzyme activity of GFAT-alpha and GFAT-beta. FIG. 3A is a graph illustrating incubation with 10 μl glutamine 200 mM+10 μl fructose 6-phosphate 3.125, 6.25, 12.5, 25, 50, 100, and 200 mM. FIG. 3B is a graph illustrating incubation with 10 μl fructose 6-phosphate 200 mM+10 μl glutamine 3.125, 6.25, 12.5, 25, 50, 100, and 200 mM. 10 μl of GFAT-alpha and 5 μl of GFAT-beta extracts from transfected SF9 insect cells are incubated with 1) 10 μl glutamine 200 mM+10 μl fructose 6-phosphate 3.125, 6.25, 12.5, 25, 50, 100, and 200 mM, and 2) 10 μl fructose 6-phosphate 200 mM+10 μl glutamine 3.125, 6.25, 12.5, 25, 50, 100, and 200 mM in an incubation media containing 10 μl PBS 10×, 10 μl EDTA 50 mM, 10 μl, DTT 10 mM and water to 100 μl. The plate is sealed with a Costar plate sealer and incubated for 60 minutes at 37° C. by floating on a water bath. Additional incubation mixture is kept on ice to add to standard and control samples. […] After a 20-minute incubation at 37° C., the OD is determined for each well at 585 nm. […]
(§2) FIG. 3C is a table illustrating the Km values of the substrates for the GFAT-alpha and GFAT-beta enzymes calculated from the data generated in FIGS. 3A and 3B. […]

Substrate in data set [2]: NC(=O)CC[C@H](N)C(=O)O
The data set is described as above. Particulars: other: extracts from transfected SF9 insect cells, other substrate at saturating levels. It counts as biochemical, human. How it is done:
as §1, §2

B1: GFAT-alpha (Homo sapiens; I57T) (protein)
chain: MCGIFAYLNYHVPRTRREILETLIKGLQRLEYRGYDSAGVGFDGGNDKDWEANACKTQLIKKKGKVKALDEEVHKQQDMDLDIEFDVHLGIAHTRWATHGEPSPVNSHPQRSDKNNEFIVIHNGIITNYKDLKKFLESKGYDFESETDTETIAKLVKYMYDNRESQDTSFTTLVERVIQQLEGAFALVFKSVHFPGQAVGTRRGSPLLIGVRSEHKLSTDHIPILYRTGKDKKGSCNLSRVDSTTCLFPVEEKAVEYYFASDASAVIEHTNRVIFLEDDDVAAVVDGRLSIHRIKRTAGDHPGRAVQTLQMELQQIMKGNFSSFMQKEIFEQPESVVNTMRGRVNFDDYTVNLGGLKDHIKEIQRCRRLILIACGTSYHAGVATRQVLEELTELPVMVELASDFLDRNTPVFRDDVCFFLSQSGETADTLMGLRYCKERGALTVGITNTVGSSISRETDCGVHINAGPEIGVASTKAYTSQFVSLVMFALMMCDDRISMQERRKEIMLGLKRLPDLIKEVLSMDDEIQKLATELYHQKSVLIMGRGYHYATCLEGALKIKEITYMHSEGILAGELKHGPLALVDKLMPVIMIIMRDHTYAKCQNALQQVVARQGRPVVICDKEDTETIKNTKRTIKVPHSVDCLQGILSVIPLQLLAFHLAVLRGYDVDFPRNLAKSVTVE
notes: made in house; host or cells: SF9 insect cells (sonicated, centrifuged cell extract)
In the case of B1, the Km (usually the substrate concentration at which the rate is half of its maximum) amounted to 1850 µM in data set [1] and 1490 µM in data set [2].
